Patent US20210145921A1, “COMPOSITION COMPRISING VEGF ANTAGONISTS AND A CATIONIC PEPTIDE AND USES THEREOF” (UCL BUSINESS LTD, priority 2017, published 2021)
One block for each compound: values may come before it.

Tests used:
[1] = test system: HCE-S corneal epithelial barrier; test: in vitro HCE-S transwell transcytosis assay (Papp); assay type: in vitro ADME, human; conditions: for enhancement of delivery of Lucentis across the HCE-S barrier: Papp
Method: HCE-S barrier models for transcytosis assays were prepared using an adaptation of a previously described method.^[1] HCE-S cells (5×10^4 cells/well) were seeded on transwell inserts (poly-carbonate, 3 μm pore size, 1.13 cm^2) and maintained for 7 days refreshing the medium in the apical and basal chambers every second day. After this time cells were cultured for a further 10 days at an apical air interface to encourage development of a multilayer barrier. Prior to each experiment culture medium was replaced with phenol red free DMEM and barrier integrity measured via transepithelial resistance (TER). TER values were obtained in the range 300-600 Ωcm^2 and only epithelial barriers with TERs>300 Ω·cm^2, the accepted threshold for tight epithelial barriers, were used for transcytosis experiments.
Permeation studies were conducted to determine the rate of anti-VEGF transcytosis in the presence/absence of varying concentrations of R8. Experiments were initiated by adding 1.5 ml serum- and phenol red-free DMEM to the basal chamber and 0.5 ml to the apical chamber containing 0.1 mg/mL Avastin or Lucentis in the presence of varying molar ratios of R8. After 3 h, 100 μl of medium was withdrawn from the basal chamber and the concentration of anti-VEGF in the basal chamber was determined using established and commercially available sandwich ELISA techniques (KPL Protein Detector HRP Microwell Kit, Anti-Human Cat #54-62-10 with Jackson Immuno Research AffiniPure Rabbit Anti-Human IgG capture antibody).^[1] […] The permeability coefficient (Papp) of each anti-VEGF was determined as previously described^[1] using equation 1;
where CR is the final concentration of anti-VEGF recovered from the ELISA assay, CD is the initial concentration of anti-VEGFs added to the assay, tmin is the transcytosis time (180 min), VR is the volume of the receiving chamber (1.5 ml) and A represents the filter area (1.12 cm^2).
Lucentis (+/−Steryl-R8) were applied to the Apical chamber and the concentration crossing the barrier was determined from the basolateral chamber at different timepoints using a Lucentis sandwich ELISA. Intact HCE-S barrier was confirmed by measuring transepithelial resistance (>[…]) before each assay.

[2] = test system: rhVEGF165; conditions: read-out: IC50, tissue factor up-regulation; cited from earlier work
[3] = human, in vivo; cited from earlier work
[4] = in vivo; cited from earlier work
[5] = test system: human umbilical vein endothelial cell (HUVEC); conditions: cited from earlier work
[6] = in vivo rabbit study, topical instillation, anti-VEGF in eye tissue by sandwich ELISA; design: species or system New Zealand rabbits
Method: All animal experiments were performed in compliance with the ARVO Statement for the Use of Animals in Ophthalmic and Vision Research. New Zealand rabbits received unilateral topical instillations of 0.03 mL anti-VEGF in the presence of R8 (varying molar concentrations) either as a liquid or hydrogel formulations without anaesthesia. At the specified time after application animals were euthanized before enucleation, washing (PBS) and snap-freezing and dissection of ocular tissues. Samples were weighed and cryohomogenised before the concentration of anti-VEGF per gram of eye tissue determined using established sandwich ELISA protocols.

[7] = test system: HCE-S cells; test: AlamarBlue cell viability assay; assay type: cell-based, human; conditions: 24 h exposure, up to 200/1 molar ratio
Method: HCE-S monolayers for uptake assays were prepared by seeding 96 well plates with 1×10^4 cells/well and maintaining for 5 days replacing the medium every other day. After this time, medium was replaced with that containing 100 μM calcein loaded PLVs in the presence or absence of 200 nM AnxA5. Cells were incubated with PLVs at 37° C. for 3 h protected from light. Epithelial monolayers were then washed three times in ice cold PBS (with calcium and magnesium) to remove free PLVs, followed by a single wash in ice cold isosmotic citrate buffer (pH 3) to remove surface bound PLVs before applying a PBS wash containing 1% Triton X-100 to solubilise membranes. Upon completion of each washing step, calcein fluorescence was measured using a 485 nm excitation and 515 nm emission with a SAFIRE micro plate reader (TECAN) HCE-S monolayers for viability assays were prepared by seeding 96 well plates with 1×10^4 cells/well and maintaining for 24 h at 37° C. in a humidified incubator with 5% CO2. […] Cells were incubated with anti-VEGF/R8 solutions for 24 h before viability of HCE-S cells in response to was assessed using the AlamarBlue (Invitrogen) cell viability assay according to manufacturers instructions. […]

[8] = dextran transcytosis assay; assay type: in vitro ADME
Text: The fifth experiment conducted was whether R8 affected the transport of dextrans across a membrane, FIG. 27. Dextrans are complex branched polysaccharides made of many glucose molecules. They can be composed of chains of varying lengths.

Compound: Bevacizumab [Avastin]
transport across the HCE-S barrier in the presence of R8 (ST-R8) [1]: aided the transport

Compound: Ranibizumab [Lucentis]
transport across the HCE-S barrier in the presence of R8 (ST-R8) [1]: aided the transport | IC50 [2]: 0.31 nM | clinical Cmax predicted at steady state [3]: 1.7 ng/mL | clinical Cmax, maximal individual level [3]: 2.4 ng/mL | half-life in the eye [4]: 173 h | concentration giving total inhibition of proliferation [5]: ≥ 1.3 nM | IC50 ([5]; read-out: IC50, VEGF-induced proliferation): < 1 nM | free Lucentis detected in retina ([6]; 2 h after topical instillation): ~20 ng | concentration detected in plasma ([6]; free Lucentis, topical instillation, 2 h): < 0.1 ng/mL | proportion of dosed free Lucentis reaching the retina by the topical route ([6]; from dosed eye versus co-eye concentration, n=10): ~30% | Lucentis delivery to the retina ([6]; liquid formulation, 2 h, n=3): 18 ± 8 ng/g | levels of Lucentis in the vitreous and retina/choroid ([6]; rabbit, one eye dosed, 2 hours after topical application): 10 ng/g tissue

transcytosis of Lucentis, peptide alone without liposomes [1]: dramatic enhancement in transcytosis | enhancement of delivery of Lucentis across the HCE-S barrier [1]: concentration dependent manner | effect on transport of different sizes of dextran across a membrane [8]: made no difference
Compound: N=C(N)NCCC[C@H](NC(=O)[C@H](CCCNC(=N)N)NC(=O)[C@H](CCCNC(=N)N)NC(=O)[C@H](CCCNC(=N)N)NC(=O)[C@H](CCCNC(=N)N)NC(=O)[C@H](CCCNC(=N)N)NC(=O)[C@H](CCCNC(=N)N)NC(=O)[C@@H](N)CCCNC(=N)N)C(=O)O [R8, RRRRRRRR]
toxicity to HCE-S cells [7]: non-toxic

transcytosis of anti-VEGF (Lucentis) loaded liposomes [1]: significantly enhanced | enhancement of delivery of Lucentis across the HCE-S barrier [1]: concentration dependent manner
Compound: CCCCCCCCCCCCCCCCCC(=O)N[C@@H](CCCNC(=N)N)C(=O)N[C@@H](CCCNC(=N)N)C(=O)N[C@@H](CCCNC(=N)N)C(=O)N[C@@H](CCCNC(=N)N)C(=O)N[C@@H](CCCNC(=N)N)C(=O)N[C@@H](CCCNC(=N)N)C(=O)N[C@@H](CCCNC(=N)N)C(=O)N[C@@H](CCCNC(=N)N)C(=O)O [ST-R8, Stearyl-R8]
